Biological target: N-terminally MBP-fused and C-terminally mCherry-fused C-terminal intracellular region of Lrp5 (zebrafish)
Assay: bead binding assay read by EGFP fluorescence microscopy

Substance: N-terminally GST-fused and C-terminally EGFP-fused RBP1a (natural protein)
- EGFP signal on beads: 5.3

Source: publication PMC7683268
